Data on 7 molecules can be found in patent publication US20140018297A1 (Novo Nordisk, published 2014).

The target of test [1] is T1, FVIII (N8, turoctocog alfa), B domain truncated FVIII (human, UniProt P00451 20-2351).
T1 construct: also called F8; F8-500
T1 sequence: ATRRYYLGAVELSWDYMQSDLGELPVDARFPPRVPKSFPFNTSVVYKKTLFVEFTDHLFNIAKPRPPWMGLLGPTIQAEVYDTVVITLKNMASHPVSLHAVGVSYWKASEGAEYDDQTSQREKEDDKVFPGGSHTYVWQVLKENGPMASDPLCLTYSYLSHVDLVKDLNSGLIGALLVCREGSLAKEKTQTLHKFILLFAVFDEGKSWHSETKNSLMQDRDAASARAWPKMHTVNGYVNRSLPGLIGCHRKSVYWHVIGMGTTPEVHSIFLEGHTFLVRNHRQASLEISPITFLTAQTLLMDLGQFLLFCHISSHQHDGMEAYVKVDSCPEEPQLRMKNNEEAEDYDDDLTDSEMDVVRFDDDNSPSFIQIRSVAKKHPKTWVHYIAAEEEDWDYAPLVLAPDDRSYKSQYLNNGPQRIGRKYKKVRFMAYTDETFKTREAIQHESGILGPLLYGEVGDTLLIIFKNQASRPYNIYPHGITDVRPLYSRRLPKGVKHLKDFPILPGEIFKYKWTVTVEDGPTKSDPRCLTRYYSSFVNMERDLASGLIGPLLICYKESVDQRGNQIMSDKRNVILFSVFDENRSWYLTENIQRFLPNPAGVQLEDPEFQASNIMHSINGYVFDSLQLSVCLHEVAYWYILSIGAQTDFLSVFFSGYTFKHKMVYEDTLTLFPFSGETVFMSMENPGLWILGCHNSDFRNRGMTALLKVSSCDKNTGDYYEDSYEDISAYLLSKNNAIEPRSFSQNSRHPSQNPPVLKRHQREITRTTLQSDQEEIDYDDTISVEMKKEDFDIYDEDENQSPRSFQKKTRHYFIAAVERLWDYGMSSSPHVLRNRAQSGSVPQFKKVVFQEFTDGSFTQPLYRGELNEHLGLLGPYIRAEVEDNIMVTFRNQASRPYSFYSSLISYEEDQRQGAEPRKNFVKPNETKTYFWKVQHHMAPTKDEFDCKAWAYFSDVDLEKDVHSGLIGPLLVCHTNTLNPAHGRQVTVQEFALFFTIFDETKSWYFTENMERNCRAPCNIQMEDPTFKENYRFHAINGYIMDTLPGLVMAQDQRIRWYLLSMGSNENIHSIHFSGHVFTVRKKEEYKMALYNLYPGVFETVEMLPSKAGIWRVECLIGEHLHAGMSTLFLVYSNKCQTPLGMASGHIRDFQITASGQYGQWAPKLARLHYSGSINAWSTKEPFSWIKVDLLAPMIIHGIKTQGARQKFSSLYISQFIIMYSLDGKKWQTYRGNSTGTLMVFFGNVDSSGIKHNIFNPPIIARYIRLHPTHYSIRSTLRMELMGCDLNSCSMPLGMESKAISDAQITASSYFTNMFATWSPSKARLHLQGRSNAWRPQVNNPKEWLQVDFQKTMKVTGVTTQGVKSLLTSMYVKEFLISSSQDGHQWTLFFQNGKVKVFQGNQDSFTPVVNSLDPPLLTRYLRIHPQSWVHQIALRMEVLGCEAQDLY
In words: SEC-UV (280 nm), Waters Biosuite 4.6x300 mm, 0.3 ml/min, 155 mM NaCl, 10 mM calcium acetate, 10% isopropanol, 25 °C; FVIII 10 µM, fragment 20 µM, 1:2 mixture. Here is the method:
Size-exclusion chromatography was performed on a Waters Biosuite 4.6×300 mm column using a flow rate of 0.3 ml/min and a running buffer of 155 mM NaCl, 10 mM Calciumacetat, 10% Isopropanol at 25° C. The absorbance of the effluent was monitored by a UV detector at 280 nm. SEC-UV characterization were performed of FVIII, TIL′/E′/D3/A1 III, TIL′/E′/D3 II, and 1:2 complexes of FVIII—TIL′/E′/D3/A1 III and of FVIII—TIL′/E′/D3 II. Samples of FVIII 10 μM, TIL′/E′/D3/A1 III 20 μM, TIL′/E′/D3 II 20 μM, and in complex were prepared and 15 μL were loaded on to the column.

Test [2] concerns the target T2, FVIII (as used in the competition ELISA of Example 21; form not stated) (UniProt P00451 20-2351, limits assumed).
T2 sequence (looked up): T1 sequence
Kind of test: competition ELISA; competitor coated human VWF; FVIII 1 nM pre-incubated with the fragment. Here is the method: In order to investigate the binding of the different VWF fragments to FVIII the following method is used. Briefly, human VWF is coated in a microtiterplate and incubated overnight at 4° C. After blocking, a solution with pre-incubated FVIII (1 nM) and VWF/VWF-fragment is added to the plate, followed by detection with biotinylated anti FVIII antibody and streptavidin-peroxidase S-POD (1:20000). The absorbance is measured at 450/620 nm.

The target in test [3] is T3, Fluorescent labelled FVIII (Oregon green-FVIII) (UniProt P00451 20-2351, limits assumed, Oregon green label).
T3 sequence (looked up): T1 sequence
In words: cell-based or functional assay.

Test [4] deals with T1, FVIII (N8, turoctocog alfa), B domain …. Kind of test: Isothermal titration calorimetry at 20 °C, VWF fragment in the syringe titrated into FVIII (turoctocog alfa) in the cell, single-site fit; 50 mM Hepes pH 7.4, 150 mM NaCl, 10 mM CaCl2. Here is the method: (§1) All protein samples are dialyzed in 50 mM Hepes pH 7.4, 150 mM NaCl, 10 mM CaCl₂ buffer. Each iTC experiment involves filling the iTC cell with FVIII (approximately 250 μL) and the syringe with VWF variants (approximately 40 μL). Temperature is set as required and the protein sample is allowed to equilibrate under given experimental conditions (approximately 10 minutes). Typically 17-20 injections (of 2-2.5 μL) of VWF variants into cell, containing FVIII, are performed. The first injection is always of 0.2 μL and is discarded from the final data analysis in order to account for diffusion during equilibration step. Stirring speed is set between 700-1000 rpm. Filter period for data collection is 5 sec with a high feedback mode setting. Each titration is spaced by 120 sec. Appropriate control experiments are performed. Raw data is processed to set baseline and integrated to obtain a final isotherm. This binding isotherm is fit to a single-site model to yield Kd, stoichiometry (n), ΔH, and ΔS values to complete characterization of VWF variant binding to FVIII.

The target is the same in test [5]. In words: isothermal titration calorimetry at 20° C., VWF variant injected into FVIII. How it is done:
as §1

The target is the same in test [6]. Kind of test: isothermal titration calorimetry at 20° C., VWF variant injected into FVIII; ITC at 20° C. Here is the method: as §1

B1: VWF(764-1261)-C1099/1142S-ALA-HPC4 monomer (other)
chain: SLSCRPPMVKLVCPADNLRAEGLECTKTCQNYDLECMSMGCVSGCLCPPGMVRHENRCVALERCPCFHQGKEYAPGETVKIGCNTCVCQDRKWNCTDHVCDATCSTIGMAHYLTFDGLKYLFPGECQYVLVQDYCGSNPGTFRILVGNKGCSHPSVKCKKRVTILVEGGEIELFDGEVNVKRPMKDETHFEVVESGRYIILLLGKALSVVWDRHLSISVVLKQTYQEKVCGLCGNFDGIQNNDLTSSNLQVEEDPVDFGNSWKVSSQCADTRKVPLDSSPATCHNNIMKQTMVDSSCRILTSDVFQDCNKLVDPEPYLDVCIYDTCSCESIGDCASFCDTIAAYAHVCAQHGKVVTWRTATLCPQSCEERNLRENGYESEWRYNSCAPACQVTCQHPEPLACPVQCVEGCHAHCPPGKILDELLQTCVDPEDCPVCEVAGRRFASGKKVTLNPSDPEHCQICHCDVVNLTCEACQEPGGLVVPPTDAPVSPTTLYVEDALAEDQVDPRLIDGK
notes: also called 2309; TIL′/E′/D3 II
For the molecule B1, in test [1], the binding result is reported as “binds”.

B2: VWF(764-1250)-C1099/1142S-ALA-HPC4 monomer (other)
chain: SLSCRPPMVKLVCPADNLRAEGLECTKTCQNYDLECMSMGCVSGCLCPPGMVRHENRCVALERCPCFHQGKEYAPGETVKIGCNTCVCQDRKWNCTDHVCDATCSTIGMAHYLTFDGLKYLFPGECQYVLVQDYCGSNPGTFRILVGNKGCSHPSVKCKKRVTILVEGGEIELFDGEVNVKRPMKDETHFEVVESGRYIILLLGKALSVVWDRHLSISVVLKQTYQEKVCGLCGNFDGIQNNDLTSSNLQVEEDPVDFGNSWKVSSQCADTRKVPLDSSPATCHNNIMKQTMVDSSCRILTSDVFQDCNKLVDPEPYLDVCIYDTCSCESIGDCASFCDTIAAYAHVCAQHGKVVTWRTATLCPQSCEERNLRENGYESEWRYNSCAPACQVTCQHPEPLACPVQCVEGCHAHCPPGKILDELLQTCVDPEDCPVCEVAGRRFASGKKVTLNPSDPEHCQICHCDVVNLTCEACQEPGGLVVPPTDAALAEDQVDPRLIDGK
notes: also called TIL′/E′/D3 I
Regarding B2, the 50% inhibitory concentration (IC50) in test [2] amounted to 12 nM. Moreover, the “IC50 (nM), FVIII uptake in dendritic cells” value in test [3] was 31 nM.

B3: VWF(764-1198)-C1099/1142S-ALA-HPC4 monomer (other)
chain: SLSCRPPMVKLVCPADNLRAEGLECTKTCQNYDLECMSMGCVSGCLCPPGMVRHENRCVALERCPCFHQGKEYAPGETVKIGCNTCVCQDRKWNCTDHVCDATCSTIGMAHYLTFDGLKYLFPGECQYVLVQDYCGSNPGTFRILVGNKGCSHPSVKCKKRVTILVEGGEIELFDGEVNVKRPMKDETHFEVVESGRYIILLLGKALSVVWDRHLSISVVLKQTYQEKVCGLCGNFDGIQNNDLTSSNLQVEEDPVDFGNSWKVSSQCADTRKVPLDSSPATCHNNIMKQTMVDSSCRILTSDVFQDCNKLVDPEPYLDVCIYDTCSCESIGDCASFCDTIAAYAHVCAQHGKVVTWRTATLCPQSCEERNLRENGYESEWRYNSCAPACQVTCQHPEPLACPVQCVEGCHAHCPPGKILDELLQTCVDPEDCPVALAEDQVDPRLIDGK
notes: also called 0003; TIL′/E′/VWD3/C8-3/TIL-3
On to B3, for which the IC50 in test [2] is 28 nM.

B4: VWF(764-1041)-ALA-HPC4 monomer (other)
chain: SLSCRPPMVKLVCPADNLRAEGLECTKTCQNYDLECMSMGCVSGCLCPPGMVRHENRCVALERCPCFHQGKEYAPGETVKIGCNTCVCQDRKWNCTDHVCDATCSTIGMAHYLTFDGLKYLFPGECQYVLVQDYCGSNPGTFRILVGNKGCSHPSVKCKKRVTILVEGGEIELFDGEVNVKRPMKDETHFEVVESGRYIILLLGKALSVVWDRHLSISVVLKQTYQEKVCGLCGNFDGIQNNDLTSSNLQVEEDPVDFGNSWKVSSQCADTRKVPLDSALAEDQVDPRLIDGK
notes: also called 2306; TIL′/E′/VWD3 II
With B4, the half-inhibitory concentration (IC50) in test [2] was 2200 nM. In test [3], the “IC50 (nM), FVIII uptake in dendritic cells” value is 570 nM.

B5: VWF(764-865)-ALA-HPC4 monomer (other)
chain: SLSCRPPMVKLVCPADNLRAEGLECTKTCQNYDLECMSMGCVSGCLCPPGMVRHENRCVALERCPCFHQGKEYAPGETVKIGCNTCVCQDRKWNCTDHVCDAALAEDQVDPRLIDGK
notes: also called TIL′E′
In test [2], B5 came in with an IC50 of 2000 nM. The Ka in test [4] came to 3.02e+06 M⁻¹. In test [5], this molecule showed a stoichiometry of 1.14, a ΔH of -5.82 kcal/mol and a ΔS of 9.8 cal/mol/deg. Further, in test [6], the equilibrium dissociation constant (Kd) was 330 nM.

B6: VWF(764-1045)-ALA-HPC4 monomer (other)
chain: SLSCRPPMVKLVCPADNLRAEGLECTKTCQNYDLECMSMGCVSGCLCPPGMVRHENRCVALERCPCFHQGKEYAPGETVKIGCNTCVCQDRKWNCTDHVCDATCSTIGMAHYLTFDGLKYLFPGECQYVLVQDYCGSNPGTFRILVGNKGCSHPSVKCKKRVTILVEGGEIELFDGEVNVKRPMKDETHFEVVESGRYIILLLGKALSVVWDRHLSISVVLKQTYQEKVCGLCGNFDGIQNNDLTSSNLQVEEDPVDFGNSWKVSSQCADTRKVPLDSSPATALAEDQVDPRLIDGK
notes: also called TIL′/E′/VWD3 III
B6 had an IC50 in test [2] of 2000 nM.

B7: VWF(864-1250)-C1099/1142S-ALA-HPC4 monomer (other)
chain: DATCSTIGMAHYLTFDGLKYLFPGECQYVLVQDYCGSNPGTFRILVGNKGCSHPSVKCKKRVTILVEGGEIELFDGEVNVKRPMKDETHFEVVESGRYIILLLGKALSVVWDRHLSISVVLKQTYQEKVCGLCGNFDGIQNNDLTSSNLQVEEDPVDFGNSWKVSSQCADTRKVPLDSSPATCHNNIMKQTMVDSSCRILTSDVFQDCNKLVDPEPYLDVCIYDTCSCESIGDCASFCDTIAAYAHVCAQHGKVVTWRTATLCPQSCEERNLRENGYESEWRYNSCAPACQVTCQHPEPLACPVQCVEGCHAHCPPGKILDELLQTCVDPEDCPVCEVAGRRFASGKKVTLNPSDPEHCQICHCDVVNLTCEACQEPGGLVVPPTDAALAEDQVDPRLIDGK
notes: also called 0001; D3 I
For the molecule B7, in test [2], the IC50 was determined as 20000 nM.
